Laboratory results as given in the supplement of paper PMC10567573.

B1: BTBD10 (parent)
chain: FVYENAKEGARNIRTSERVTLIVD
B2: ELF3 (parent)
chain: LSKEYWDCLEGKKSKHAPRGTHLW

Variants of: B1
Assay: protein stability index of a GFP-peptide fusion (GPS, HEK-293T) (PSI 1-6); higher = more stable
Conditions: c terminus: a fixed tail appended
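Further: lentivirally expressed fusions sorted by FACS into six bins by GFP to DsRed ratio, PSI derived from sequencing read proportions per bin multiplied by bin number.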

| Variant | protein stability index |
| --- | --- |
| FVYENAKEGARNIRTSMRVTLIVD [E17M] | 2.82 |
| FVYENAKEGARNIITSERVTLIVD [R14I] | 2.02 |

Variants of: B2
Assay: as above
Conditions: c terminus: a fixed tail appended

| Variant | protein stability index |
| --- | --- |
| LSWEYWDCLEGKKSKHAPRGTHLW [K3W] | 2.35 |
| LSHEYWDCLEGKKSKHAPRGTHLW [K3H] | 2.78 |
| LSLEYWDCLEGKKSKHAPRGTHLW [K3L] | 2.57 |
| LSQEYWDCLEGKKSKHAPRGTHLW [K3Q] | 2.13 |
| LSREYWDCLEGKKSKHAPRGTHLW [K3R] | 2.93 |
| LSCEYWDCLEGKKSKHAPRGTHLW [K3C] | 2.55 |
| LSSEYWDCLEGKKSKHAPRGTHLW [K3S] | 2.61 |
| LSNEYWDCLEGKKSKHAPRGTHLW [K3N] | 2.97 |
| LSIEYWDCLEGKKSKHAPRGTHLW [K3I] | 2.29 |
| LSMEYWDCLEGKKSKHAPRGTHLW [K3M] | 2.33 |
| LSPEYWDCLEGKKSKHAPRGTHLW [K3P] | 2.56 |
| LSFEYWDCLEGKKSKHAPRGTHLW [K3F] | 2.1 |
| LSTEYWDCLEGKKSKHAPRGTHLW [K3T] | 2.83 |
| LSDEYWDCLEGKKSKHAPRGTHLW [K3D] | 2.69 |
| LSYEYWDCLEGKKSKHAPRGTHLW [K3Y] | 2.6 |
| LSGEYWDCLEGKKSKHAPRGTHLW [K3G] | 2.02 |
| LSVEYWDCLEGKKSKHAPRGTHLW [K3V] | 2.1 |
| LSAEYWDCLEGKKSKHAPRGTHLW [K3A] | 2.7 |
| LSEEYWDCLEGKKSKHAPRGTHLW [K3E] | 2.97 |
| LSKEYWDKLEGKKSKHAPRGTHLW [C8K] | 3.73 |
| LSKEYWDILEGKKSKHAPRGTHLW [C8I] | 2.66 |
| LSKEYWDHLEGKKSKHAPRGTHLW [C8H] | 3.06 |
| LSKEYWDRLEGKKSKHAPRGTHLW [C8R] | 3.2 |

| Variant | protein stability index |
| --- | --- |
| LSKEYWDFLEGKKSKHAPRGTHLW [C8F] | 2.81 |
| LSKEYWDALEGKKSKHAPRGTHLW [C8A] | 3.1 |
| LSKEYWDYLEGKKSKHAPRGTHLW [C8Y] | 2.74 |
| LSKEYWDWLEGKKSKHAPRGTHLW [C8W] | 2.17 |
| LSKEYWDLLEGKKSKHAPRGTHLW [C8L] | 3.08 |
| LSKEYWDNLEGKKSKHAPRGTHLW [C8N] | 3.07 |
| LSKEYWDDLEGKKSKHAPRGTHLW [C8D] | 3.97 |
| LSKEYWDSLEGKKSKHAPRGTHLW [C8S] | 3.33 |
| LSKEYWDMLEGKKSKHAPRGTHLW [C8M] | 3.48 |
| LSKEYWDVLEGKKSKHAPRGTHLW [C8V] | 3.89 |
| LSKEYWDQLEGKKSKHAPRGTHLW [C8Q] | 2.95 |
| LSKEYWDPLEGKKSKHAPRGTHLW [C8P] | 2.04 |
| LSKEYWDGLEGKKSKHAPRGTHLW [C8G] | 3.2 |
| LSKEYWDTLEGKKSKHAPRGTHLW [C8T] | 3.26 |
| LSKEYWDELEGKKSKHAPRGTHLW [C8E] | 2.85 |
| LSKEYWDCVEGKKSKHAPRGTHLW [L9V] | 3.83 |
| LSKEYWDCHEGKKSKHAPRGTHLW [L9H] | 3.26 |
| LSKEYWDCSEGKKSKHAPRGTHLW [L9S] | 3.31 |
| LSKEYWDCNEGKKSKHAPRGTHLW [L9N] | 3.81 |
| LSKEYWDCREGKKSKHAPRGTHLW [L9R] | 2.89 |
| LSKEYWDCGEGKKSKHAPRGTHLW [L9G] | 3.65 |
| LSKEYWDCDEGKKSKHAPRGTHLW [L9D] | 3.22 |
| LSKEYWDCYEGKKSKHAPRGTHLW [L9Y] | 2.84 |

| Variant | protein stability index |
| --- | --- |
| LSKEYWDCTEGKKSKHAPRGTHLW [L9T] | 2.93 |
| LSKEYWDCPEGKKSKHAPRGTHLW [L9P] | 3.44 |
| LSKEYWDCAEGKKSKHAPRGTHLW [L9A] | 3.38 |
| LSKEYWDCIEGKKSKHAPRGTHLW [L9I] | 3.04 |
| LSKEYWDCCEGKKSKHAPRGTHLW [L9C] | 3.3 |
| LSKEYWDCFEGKKSKHAPRGTHLW [L9F] | 2.6 |
| LSKEYWDCEEGKKSKHAPRGTHLW [L9E] | 3.46 |
| LSKEYWDCMEGKKSKHAPRGTHLW [L9M] | 3.42 |
| LSKEYWDCWEGKKSKHAPRGTHLW [L9W] | 2.27 |
| LSKEYWDCQEGKKSKHAPRGTHLW [L9Q] | 3.71 |
| LSKEYWDCKEGKKSKHAPRGTHLW [L9K] | 2.92 |
| LSKEQWDCLEGKKSKHAPRGTHLW [Y5Q] | 2.45 |
| LSKERWDCLEGKKSKHAPRGTHLW [Y5R] | 3 |
| LSKEFWDCLEGKKSKHAPRGTHLW [Y5F] | 3.23 |
| LSKETWDCLEGKKSKHAPRGTHLW [Y5T] | 2.66 |
| LSKEKWDCLEGKKSKHAPRGTHLW [Y5K] | 3.19 |
| LSKEDWDCLEGKKSKHAPRGTHLW [Y5D] | 3.41 |
| LSKENWDCLEGKKSKHAPRGTHLW [Y5N] | 3.45 |
| LSKEHWDCLEGKKSKHAPRGTHLW [Y5H] | 3.85 |
| LSKEEWDCLEGKKSKHAPRGTHLW [Y5E] | 3.62 |
| LSKEIWDCLEGKKSKHAPRGTHLW [Y5I] | 2.65 |
| LSKEWWDCLEGKKSKHAPRGTHLW [Y5W] | 2.66 |
| LSKELWDCLEGKKSKHAPRGTHLW [Y5L] | 2.19 |

| Variant | protein stability index |
| --- | --- |
| LSKEPWDCLEGKKSKHAPRGTHLW [Y5P] | 3.37 |
| LSKECWDCLEGKKSKHAPRGTHLW [Y5C] | 2.91 |
| LSKEGWDCLEGKKSKHAPRGTHLW [Y5G] | 2.92 |
| LSKEAWDCLEGKKSKHAPRGTHLW [Y5A] | 3.23 |
| LSKEVWDCLEGKKSKHAPRGTHLW [Y5V] | 2.34 |
| LSKESWDCLEGKKSKHAPRGTHLW [Y5S] | 3.3 |
| LSKEMWDCLEGKKSKHAPRGTHLW [Y5M] | 3.38 |
| LSKEYWDCLDGKKSKHAPRGTHLW [E10D] | 3.23 |
| LSKEYWDCLHGKKSKHAPRGTHLW [E10H] | 2.15 |
| LSKEYWDCLQGKKSKHAPRGTHLW [E10Q] | 2.73 |
| LSKEYWDCLIGKKSKHAPRGTHLW [E10I] | 1.61 |
| LSKEYWDCLPGKKSKHAPRGTHLW [E10P] | 2.16 |
| LSKEYWDCLGGKKSKHAPRGTHLW [E10G] | 2.37 |
| LSKEYWDCLFGKKSKHAPRGTHLW [E10F] | 2.08 |
| LSKEYWDCLSGKKSKHAPRGTHLW [E10S] | 2.49 |
| LSKEYWDCLVGKKSKHAPRGTHLW [E10V] | 2.28 |
| LSKEYWDCLAGKKSKHAPRGTHLW [E10A] | 2.52 |
| LSKEYWDCLLGKKSKHAPRGTHLW [E10L] | 1.82 |
| LSKEYWDCLMGKKSKHAPRGTHLW [E10M] | 2.18 |
| LSKEYWDCLTGKKSKHAPRGTHLW [E10T] | 2.1 |
| LSKEYWDCLKGKKSKHAPRGTHLW [E10K] | 2.18 |
| LSKEYWDCLCGKKSKHAPRGTHLW [E10C] | 2.07 |
| LSKEYWDCLRGKKSKHAPRGTHLW [E10R] | 1.86 |
